Measured values published in patent publication US20060069024A1 (PURDUE RESEARCH FOUNDATION, published 2006).

Legend:
[1] = molecular target: T1, PHO36 (endogenous, wild-type strain BWG7a) (Saccharomyces cerevisiae, UniProt Q12442 1-317); assay: cell-based or functional assay
T1 sequence (looked up): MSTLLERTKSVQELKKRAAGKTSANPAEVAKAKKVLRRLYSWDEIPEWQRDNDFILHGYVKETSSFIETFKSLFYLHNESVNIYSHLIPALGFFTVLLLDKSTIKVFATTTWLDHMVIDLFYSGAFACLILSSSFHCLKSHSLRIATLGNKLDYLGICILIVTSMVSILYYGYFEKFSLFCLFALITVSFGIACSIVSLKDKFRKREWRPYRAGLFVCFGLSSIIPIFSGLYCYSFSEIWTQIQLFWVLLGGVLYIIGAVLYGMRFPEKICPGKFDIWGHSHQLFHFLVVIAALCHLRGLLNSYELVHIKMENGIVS

[2] = molecular target: T2, PHO36t (product of the truncated PHO36 cDNA isolated in the screen) (Saccharomyces cerevisiae, UniProt Q12442 116-317, limits assumed); assay: cell-based or functional assay
T2 sequence (looked up): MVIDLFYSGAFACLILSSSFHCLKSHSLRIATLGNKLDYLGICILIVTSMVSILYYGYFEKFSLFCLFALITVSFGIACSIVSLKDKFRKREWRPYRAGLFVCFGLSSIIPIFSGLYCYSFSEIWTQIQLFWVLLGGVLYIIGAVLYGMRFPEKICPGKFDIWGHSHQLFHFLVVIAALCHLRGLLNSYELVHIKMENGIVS

STE7-Myc fusion protein = molecular target: T3, STE7-Myc fusion protein (Saccharomyces cerevisiae, UniProt P06784 1-515, limits assumed); assay: pull-down with osmotin-Sepharose 4B, anti-myc (myc1-9E10) immunoblot
T3 construct: Used as a cell extract of BWG7a expressing the fusion, as a control for the c-myc tag; also called c-myc tagged STE7; pNC267 product; not shown: Myc tag
T3 sequence (looked up): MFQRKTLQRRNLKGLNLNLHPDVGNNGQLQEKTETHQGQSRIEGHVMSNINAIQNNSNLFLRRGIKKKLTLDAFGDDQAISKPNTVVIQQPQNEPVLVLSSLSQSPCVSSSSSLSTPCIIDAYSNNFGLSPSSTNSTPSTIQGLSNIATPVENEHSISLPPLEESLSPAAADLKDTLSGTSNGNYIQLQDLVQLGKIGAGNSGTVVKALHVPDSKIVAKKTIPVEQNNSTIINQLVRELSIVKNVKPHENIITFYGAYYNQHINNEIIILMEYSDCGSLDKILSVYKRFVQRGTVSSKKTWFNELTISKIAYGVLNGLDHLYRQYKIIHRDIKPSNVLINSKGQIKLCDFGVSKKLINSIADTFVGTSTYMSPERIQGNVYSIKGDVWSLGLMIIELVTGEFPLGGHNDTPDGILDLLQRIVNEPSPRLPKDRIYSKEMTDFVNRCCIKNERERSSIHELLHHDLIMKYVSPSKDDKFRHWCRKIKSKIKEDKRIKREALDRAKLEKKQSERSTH
Description: FIG. 4: PHO36 Interacts Specifically with Osmotin In Vitro and In Vivo. A. Osmotin-Sepharose 4B was incubated with cell extract of the strain BWG7a expressing the fusion protein STE7-Myc (lane 1), total membrane fraction purified from the strain ΔPHO36 (lane 2) or total membrane fraction purified from the strain BWG7a expressing c-myc tagged PHO36 from the plasmid pPHO36MH (lanes 3-8) in the absence (lanes 1, 2, and 5) or presence of the competitor proteins A9 (100 μg, lane 3; or 10 μg, lane 7), osmotin (Osm; 100 μg, lane 4; or 10 μg, lane 6), or BSA (100 μg, lane 8). After extensive washing, bound proteins were dissociated, separated by SDS-PAGE and the c-Myc tag was immunodetected with mycl-9E10 antibodies. B. Spheroplasts (10⁹ml⁻¹) derived from the Δpho36 mutant (Δpho36), and the wild-type strain BWG7a carrying the plasmid pPHO36MH (pPHO36) were incubated with ³⁵S-osmotin (0.4 μM, 0.16 μCi) for 1 hr, without (none) or with a 10-fold molar excess of A9, BSA, or osmotin as competitors. After extensive washing, ³⁵S-osmotin retained on spheroplasts was counted.
Protein interaction assays in solution. Osmotin was coupled to CNBr-activated Sepharose 4B (Pharmacia Biotech) according to the manufacturer's instructions. […]

[3] = molecular target: T4, PHO36MH (PHO36 with c-myc epitope and hexa-His tag fused in-frame at the C-terminus) (Saccharomyces cerevisiae, UniProt Q12442 1-317); assay: 35S-osmotin binding to yeast spheroplasts, scintillation counting, non-specific binding subtracted
T4 construct: whole, on cells; Overexpressed in BWG7a from the multicopy plasmid pPHO36MH; It was used as a detergent-solubilised total membrane fraction in the pull-down and on spheroplasts in the 35S-osmotin assay; Bands of about 36 and 72 kDa were read as monomers and dimers; also called c-myc tagged PHO36; recombinant PHO36MH; not shown: c-myc tag; hexa-His tag
T4 sequence (looked up): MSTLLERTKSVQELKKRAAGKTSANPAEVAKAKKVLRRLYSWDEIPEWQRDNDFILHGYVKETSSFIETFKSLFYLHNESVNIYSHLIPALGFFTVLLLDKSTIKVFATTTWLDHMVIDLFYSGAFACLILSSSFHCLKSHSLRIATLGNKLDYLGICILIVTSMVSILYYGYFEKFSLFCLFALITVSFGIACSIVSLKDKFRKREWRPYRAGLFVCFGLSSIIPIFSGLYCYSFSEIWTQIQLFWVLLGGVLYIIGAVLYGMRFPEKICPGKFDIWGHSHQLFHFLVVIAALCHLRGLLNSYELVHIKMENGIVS
Description: After extensive washing, bound proteins were dissociated, separated by SDS-PAGE and the c-Myc tag was immunodetected with mycl-9E10 antibodies. B. Spheroplasts (10⁹ml⁻¹) derived from the Δpho36 mutant (Δpho36), and the wild-type strain BWG7a carrying the plasmid pPHO36MH (pPHO36) were incubated with ³⁵S-osmotin (0.4 μM, 0.16 μCi) for 1 hr, without (none) or with a 10-fold molar excess of A9, BSA, or osmotin as competitors. After extensive washing, ³⁵S-osmotin retained on spheroplasts was counted.
³⁵S-Osmotin Binding Assay. Osmotin was radiolabeled to a specific-activity of 12 Ci mmol⁻¹ using the ³⁵SLR reagent (Amersham), according to manufacturer's instructions. Yeast cells were grown YPD medium until A₆₀₀ₙₘ 0.6 and then harvested by centrifugation. The pellet was resuspended in 1M sorbitol (A₆₀₀ₙₘ 6) and treated with lyticase (100 U ml⁻¹). After digestion of the cell wall was completed, spheroplasts were collected by centrifugation, washed twice with 1M sorbitol and resuspended in 1M sorbitol (10⁹ml⁻¹). The binding reaction was initiated by the addition of 2 μl of 35S-osmotin (1 μCi, 3 μg) to 300 μl of spheroplasts (0.3×10⁹). […] Spheroplasts were collected by centrifugation, washed twice, resuspended 1M sorbitol (50 μl) and counted in a liquid scintillation counter in 5 ml of EcoLume™ (ICN Biomedicals). […]

IC50 for osmotin of the wild type strain (compared with the PHO36 disruptant) [1]: 600 nM | fold change of IC50 for osmotin, cells overexpressing PHO36t against control cells with the empty vector [2]: 3 fold | binding result (STE7-Myc fusion protein): no binding | fold 35S-osmotin bound, spheroplasts of the PHO36MH-overexpressing strain against the wild-type strain with empty vector [3]: ~3 times
B1: osmotin (ligand)
chain: ATIEVRNNCPYTVWAASTPIGGGRRLDRGQTWVINAPRGTKMARVWGRTNCNFNAAGRGTCQTGDCGGVLQCTGWGKPPNTLAEYALDQFSGLDFWDISLVDGFNIPMTFAPTNPSGGKCHAIHCTANINGECPRELRVPGGCNNPCTTFGGQQYCCTQGPCGPTFFSKFFKQRCPDAYSYPQDDPTSTFTCPGGSTNYRVIFCPNGQAHPNFPLEMPGSDEVAK
notes: Purified osmotin (26 kDa globular protein, mostly a monomer in solution); also called tobacco PR-5 protein; 35S-osmotin
IC50 for osmotin of control cells transformed with the empty vector (viable counts after one hour of osmotin treatment, galactose medium) [1]: 600 nM | IC50 for osmotin of cells overexpressing PHO36t (viable counts after one hour of osmotin treatment, galactose medium) [2]: 200 nM
